In doi:10.1101/2021.06.08.447469:

T1: MbpAgo (Mucilaginibacter paludis, UniProt H1YCU5 1-795)
T1 sequence: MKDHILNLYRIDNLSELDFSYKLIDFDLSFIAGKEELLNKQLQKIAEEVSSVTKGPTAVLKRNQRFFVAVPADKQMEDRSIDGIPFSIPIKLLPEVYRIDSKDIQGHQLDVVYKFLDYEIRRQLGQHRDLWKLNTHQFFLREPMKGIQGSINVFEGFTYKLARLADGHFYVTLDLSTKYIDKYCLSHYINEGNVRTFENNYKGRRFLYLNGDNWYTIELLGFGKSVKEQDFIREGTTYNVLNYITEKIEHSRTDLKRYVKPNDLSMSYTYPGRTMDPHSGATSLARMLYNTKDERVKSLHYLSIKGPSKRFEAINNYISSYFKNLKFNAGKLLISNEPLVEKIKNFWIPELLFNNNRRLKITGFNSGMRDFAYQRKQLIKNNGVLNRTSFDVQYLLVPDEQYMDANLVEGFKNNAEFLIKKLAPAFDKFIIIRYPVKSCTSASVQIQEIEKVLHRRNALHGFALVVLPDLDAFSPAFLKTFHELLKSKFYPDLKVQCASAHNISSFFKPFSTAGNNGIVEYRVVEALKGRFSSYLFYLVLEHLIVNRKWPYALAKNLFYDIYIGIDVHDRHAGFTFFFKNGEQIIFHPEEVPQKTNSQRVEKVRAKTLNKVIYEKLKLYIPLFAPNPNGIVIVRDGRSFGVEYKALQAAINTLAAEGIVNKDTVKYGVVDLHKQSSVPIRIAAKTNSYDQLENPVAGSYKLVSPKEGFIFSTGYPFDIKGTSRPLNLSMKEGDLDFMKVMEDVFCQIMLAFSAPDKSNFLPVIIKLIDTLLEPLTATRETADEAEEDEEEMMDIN

B1: 18 nt 5'OH-gDNA (FAM T-gDNA) (ssDNA)
DNA: TGAGGTAGTAGGTTGTAT
B2: 18 nt 5'P-gDNA (FAM T-gDNA) (ssDNA)
DNA: TGAGGTAGTAGGTTGTAT
modifications: 5' phosphate

Target: T1, MbpAgo
Assay: EMSA

| Binder | Kd |
| --- | --- |
| B1 | 292 ± 25.2 nM |
| B2 | 254 ± 23.3 nM |
